The results in this text go back to patent publication US7867500B2, “Cofactor that modulates steroid receptor activities” (The United States of America as represented by the …, priority 2004, dated 2011).

In this test the target is T1, PRs (B-form) (Homo sapiens, UniProt P06401).
T1 construct: expressed in transfected cells; host or cells: CV-1
T1 sequence (P06401 1-933): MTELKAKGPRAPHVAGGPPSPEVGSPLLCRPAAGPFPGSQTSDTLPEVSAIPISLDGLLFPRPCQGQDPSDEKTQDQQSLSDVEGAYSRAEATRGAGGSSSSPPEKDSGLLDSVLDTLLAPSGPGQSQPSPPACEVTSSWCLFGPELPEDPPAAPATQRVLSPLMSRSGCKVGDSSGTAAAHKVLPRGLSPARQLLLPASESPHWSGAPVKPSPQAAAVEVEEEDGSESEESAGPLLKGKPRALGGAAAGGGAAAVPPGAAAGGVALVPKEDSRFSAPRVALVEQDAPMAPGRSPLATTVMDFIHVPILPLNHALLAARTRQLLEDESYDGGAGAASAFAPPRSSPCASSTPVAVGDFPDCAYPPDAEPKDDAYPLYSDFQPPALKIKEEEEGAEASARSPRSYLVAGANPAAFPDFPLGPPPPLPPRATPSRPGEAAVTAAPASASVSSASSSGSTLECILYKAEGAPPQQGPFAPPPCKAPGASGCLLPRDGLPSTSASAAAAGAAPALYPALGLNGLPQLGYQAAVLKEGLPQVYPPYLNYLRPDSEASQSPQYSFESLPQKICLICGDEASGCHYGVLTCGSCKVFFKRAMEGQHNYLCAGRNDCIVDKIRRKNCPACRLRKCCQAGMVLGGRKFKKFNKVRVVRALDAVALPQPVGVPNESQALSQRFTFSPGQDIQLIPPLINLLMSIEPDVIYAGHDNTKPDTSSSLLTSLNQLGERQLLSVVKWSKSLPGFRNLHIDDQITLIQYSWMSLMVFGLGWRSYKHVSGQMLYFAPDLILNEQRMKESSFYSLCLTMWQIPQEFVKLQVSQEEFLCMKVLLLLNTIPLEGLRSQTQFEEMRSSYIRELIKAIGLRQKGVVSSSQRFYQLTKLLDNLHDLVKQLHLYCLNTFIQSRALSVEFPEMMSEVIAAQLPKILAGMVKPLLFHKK
T1 sequence (Q6EMB2 838-1281 F1267S partner limits assumed): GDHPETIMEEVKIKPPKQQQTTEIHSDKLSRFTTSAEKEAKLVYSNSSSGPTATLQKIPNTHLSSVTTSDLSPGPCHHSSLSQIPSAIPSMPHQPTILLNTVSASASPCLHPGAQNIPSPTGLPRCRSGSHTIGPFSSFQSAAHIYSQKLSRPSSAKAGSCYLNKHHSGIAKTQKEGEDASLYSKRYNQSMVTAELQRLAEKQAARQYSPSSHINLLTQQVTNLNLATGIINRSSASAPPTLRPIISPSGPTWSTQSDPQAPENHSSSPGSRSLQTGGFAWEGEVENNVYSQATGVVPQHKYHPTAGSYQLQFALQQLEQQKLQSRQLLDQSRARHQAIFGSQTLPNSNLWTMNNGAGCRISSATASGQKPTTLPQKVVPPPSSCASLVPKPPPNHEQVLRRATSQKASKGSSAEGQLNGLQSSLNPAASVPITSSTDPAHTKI
As to the kind of experiment: Mammalian two-hybrid assay with VP16 full length receptor: PR. It is filed as cell-based. The following applies: 20 nM R5020. Here is the method: FIG. 6C1-3 illustrate the association of STAMP with assorted steroid/nuclear receptors, including glucocorticoid receptors (GRs), progesterone receptors (PRs), androgen receptors (ARs), estrogen receptors (ER α or β), PPARγ2 receptors, thyroid receptor beta (TR), and retinoid (α) receptors (RAR α or RXR α). Triplicate samples of CV-1 cells were transfected (as described for FIG. 6B) with GAL, or GAL fused to TIF2.4 or STAMP834C, plus VP16 fused to the indicated full length receptors and incubated with the appropriate steroid (1 μM Dex, 20 nM R5020, 1 nM R1881, 0.1 μM triiodothyronine, or 1 μM estradiol, roziglitazone, or 9-cis-retinoic acid). The average relative luciferase activities of 2-3 experiments±S.E.M. were then plotted. FIG. 6C1 illustrates the effects of STAMP association upon GR, PR and AR induced expression. FIG. 6C2 illustrates the effects of STAMP association upon ERα, ERβ and PPARγ2 induced expression. FIG. 6C3 illustrates the effects of STAMP association upon TR, RARα and RXRα induced expression.
These assays were conducted as described (He et al., 2002). […]

B1: STAMP834C: STAMP fragment amino acids 834-1277, receptor interaction domain (RID) (protein)
chain: T1 sequence (Q6EMB2 838-1281 F1267S partner limits assumed)
Take B1: the “interaction with agonist-bound, full length PR” value was “interacted”.
